Results taken from patent US20070196376A1 (AstraZeneca / MedImmune, published 2007).

Key:
mouse IGF-II = mouse IGF-II (mouse, UniProt P09535 25-91); test: cell-based or functional assay
mouse IGF-I = mouse IGF-I (mouse, UniProt P05017 49-118); test: cell-based or functional assay
[1] = target: T1, human insulin-like growth factor-II (IGF-II) (human, UniProt P01344 25-91); test: Biacore low-resolution analysis, IGF-II
T1 construct: also called IGF2; IGF-2
Protocol: (§1) The label-free surface plasmon resonance (SPR), or Biacore, was utilized to measure the antibody affinity to the antigen. For this purpose, a high-density goat anti-human antibody surface over a CM5 Biacore chip was prepared using routine amine coupling. All the mAbs were diluted to approximately 20 μg/ml in HBS-P running buffer containing 100 gg/ml BSA. Each mAb was captured on a separate surface using a 30-second contact time at 10 μL/min., and a 5-minute wash for stabilization of the mAb baseline.
(§2) The samples were prepared in the HBS-P running buffer described above. […] Drift-corrected binding data for the 34 mAbs was prepared by subtracting the signal from a control flow cell and subtracting the baseline drift of a buffer injected just prior to each antigen injection. […] A mass transport coefficient was used in fitting the data.

[2] = target: T1, human insulin-like growth factor-II …; test: Biacore low-resolution screen, mAb captured, IGF-II injected
Protocol: as §1, §2

[3] = target: T1, human insulin-like growth factor-II …; test: cell-based or functional assay
[4] = target: T2, human insulin-like growth factor-I (IGF-I) (human, UniProt P05019 49-118); test: cell-based or functional assay
[5] = target: T1, human insulin-like growth factor-II …; test: cell-based or functional assay; remark: listed apart in the source
[6] = target: T2, human insulin-like growth factor-I …; test: cell-based or functional assay; remark: listed apart in the source
[7] = target: T1, human insulin-like growth factor-II …; test: Biacore low-resolution screen, mAb captured, IGF-II injected; off-rate held constant in the fit; off-rate marked with asterisk; low-resolution screen, 5-minute dissociation
Protocol: as §1, §2

[8] = target: T1, human insulin-like growth factor-II …; test: cell-based or functional assay; remark: listed apart in the source
[9] = target: T1, human insulin-like growth factor-II …; test: cell-based or functional assay; remark: listed apart in the source
[10] = target: T2, human insulin-like growth factor-I …; test: cell-based or functional assay; remark: listed apart in the source
[11] = target: T2, human insulin-like growth factor-I …; test: Biacore high-resolution, mAb captured, IGF-I injected over a range of concentrations
[12] = target: T2, human insulin-like growth factor-I …; test: Biacore low-resolution analysis, IGF-I; low-resolution screen, not high-resolution (294.0 pM)
Protocol: as §1, §2

[13] = target: T2, human insulin-like growth factor-I …; test: Biacore low-resolution screen, mAb captured, IGF-I injected
Protocol: as §1, §2

[14] = target: T1, human insulin-like growth factor-II …; test: Biacore high-resolution, mAb captured, IGF-II injected over a range of concentrations

B1: mAb 7.159.2 (antibody, V domains shown)
VH: QVQLVQSGAEVKKPGASVKVSCKASGYTFTSYDINWVRQATGQGLEWMGWMNPNSGNTGYAQKFQGRVTMTRNTSISTAYMELSSLRSEDTAVYYCARDPYYYYYGMDVWGQGTTVTVSS
VL: QSVLTQPPSVSAAPGQKVTISCSGSSSNIENNHVSWYQQLPGTAPKLLIYDNNKRPSGIPDRFSGSKSGTSATLGITGLQTGDEADYYCETWDTSLSAGRVFGGGTKLTVLG
notes: Fully human XenoMouse hybridoma mAb, lambda light chain (V1-19/JL2); Sister clones 7.159.1 and 7.159.2 are said to be identical; also called 7.159.1; 7_159_1
Mouse IGF-II
  Mouse IGF-II EC50 (nM), n = 1, phosphorylation of hIGF-IR in NIH3T3 cells: 3.1 nM
  Mouse IGF-II EC50 (nM), n = 2, phosphorylation of hIGF-IR in NIH3T3 cells: 5 nM
Mouse IGF-I
  Mouse IGF-I EC50 (nM), n = 1, phosphorylation of hIGF-IR in NIH3T3 cells: 2.8 nM
  Mouse IGF-I EC50 (nM), n = 2, phosphorylation of hIGF-IR in NIH3T3 cells: 5.7 nM
[1]
  Kd: 0.0029 nM
[2]
  Kd: < 0.00286 nM
  kon: 3.5e+06 M⁻¹ s⁻¹
[3]
  % MAX Activation, mean (n = 2), IGF-II pTYR of hIGF-IR in NIH3T3 cells: 28.6%
  EC50 (nM), mean (n = 2), IGF-II pTYR of hIGF-IR in NIH3T3 cells: 3.1 nM
[4]
  % MAX Activation, mean (n = 2), IGF-I pTYR of hIGF-IR in NIH3T3 cells: 16.5%
  EC50 (nM), mean (n = 2), IGF-I pTYR of hIGF-IR in NIH3T3 cells: 7.4 nM
[5]
  % Inhibition, mean (n = 2), IGF-II Proliferation Assay, NIH3T3/hIGF-IR cells: 99.3%
  EC50 (nM), mean (n = 2), IGF-II Proliferation Assay, NIH3T3/hIGF-IR cells: 7.6 nM
[6]
  % Inhibition, mean (n = 3), IGF-I Proliferation Assay, NIH3T3/hIGF-IR cells: 77%
  EC50 (nM), mean (n = 3), IGF-I Proliferation Assay, NIH3T3/hIGF-IR cells: 24.1 nM
[7]
  koff: < 1e-05 s⁻¹
[8]
  EC50 (nM), n = 1, IGF-II Proliferation, BxPC3 cells: 0.8 nM
  EC50 (nM), n = 2, IGF-II Proliferation, BxPC3 cells: 0.9 nM
  Max % Inhibition (133.3 nM), n = 2, IGF-II Proliferation, BxPC3 cells: 118%
  Max % Inhibition (333.3 nM), n = 1, IGF-II Proliferation, BxPC3 cells: 120%
[9]
  EC50 (nM), n = 1, IGF-II pTYR, BxPC3 cells: 1.6 nM
  EC50 (nM), n = 2, IGF-II pTYR, BxPC3 cells: 1.7 nM
  Max % Inhibition (133.3 nM), n = 2, IGF-II pTYR, BxPC3 cells: 91.2%
  Max % Inhibition (333.3 nM), n = 1, IGF-II pTYR, BxPC3 cells: 100%
[10]
  EC50 (nM), n = 1, IGF-I pTYR, BxPC3 cells: 3.3 nM
  EC50 (nM), n = 2, IGF-I pTYR, BxPC3 cells: 1.6 nM
  Max % Inhibition (333.3 nM), n = 1, IGF-I pTYR, BxPC3 cells: 100%
  Max % Inhibition (333.3 nM), n = 2, IGF-I pTYR, BxPC3 cells: 100%
[11]
  Kd: 0.294 nM
[12]
  Kd: 0.216 nM
[13]
  Kd: 0.216 nM
  koff: 0.00093 s⁻¹
  kon: 4.3e+06 M⁻¹ s⁻¹
[14]
  Kd: 0.0019 nM
